The results in this text go back to article PMC2913470.

The data set addresses T1, p82 (r82; Teb1-like RPA1-related telomerase holoenzyme subunit p82) (Tetrahymena thermophila, UniProt D2CVN6 1-701).
T1 sequence: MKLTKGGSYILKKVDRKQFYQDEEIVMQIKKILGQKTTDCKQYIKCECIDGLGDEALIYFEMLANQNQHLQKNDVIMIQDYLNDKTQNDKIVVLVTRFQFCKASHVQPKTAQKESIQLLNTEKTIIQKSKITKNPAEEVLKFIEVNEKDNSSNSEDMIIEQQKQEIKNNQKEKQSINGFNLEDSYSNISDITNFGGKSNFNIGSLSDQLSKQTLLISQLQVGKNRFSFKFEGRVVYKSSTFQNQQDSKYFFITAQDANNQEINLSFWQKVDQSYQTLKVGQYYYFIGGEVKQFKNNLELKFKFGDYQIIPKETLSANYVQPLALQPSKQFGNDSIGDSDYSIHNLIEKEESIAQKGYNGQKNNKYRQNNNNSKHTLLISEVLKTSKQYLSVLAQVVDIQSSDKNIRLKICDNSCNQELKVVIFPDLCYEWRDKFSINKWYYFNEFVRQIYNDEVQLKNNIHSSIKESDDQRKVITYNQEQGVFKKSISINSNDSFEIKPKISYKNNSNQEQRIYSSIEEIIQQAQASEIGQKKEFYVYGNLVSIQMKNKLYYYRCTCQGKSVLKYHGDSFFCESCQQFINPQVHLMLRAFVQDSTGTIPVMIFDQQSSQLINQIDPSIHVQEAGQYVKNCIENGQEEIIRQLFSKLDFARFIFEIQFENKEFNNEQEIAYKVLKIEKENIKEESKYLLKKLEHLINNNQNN
Put plainly: EMSA. Background: A gel shift assay detects complexes by their altered migration in electrophoresis.

B1: dsTelo3 (dsDNA)
DNA 1: CCCCAACCCCAACCCCAA
DNA 2: TTGGGGTTGGGGTTGGGG
B1: the binding result is listed as “no binding”.
